The DeepSol protein solubility set

Test: soluble on expression in E. coli; label from the status in PepcDB or PDB records

Row | Sequence | soluble on expression in E. coli
1 | MSLARKNTATRQVIHIVGEGLTELFYFSHLKKILGYRYSISPRLFENNSIEKIEKKIKELLDEDVFVICVFDADVSRRSDAENKKMVSFKKKYENNPNVILCDSLQSIEYWFLLHFEDTCRHFQDSAATERALKQYLPTYDKTRKYLEKDKWVKEMLAGSKMDKACELAEKYKGRDSYSEIYKAIKKVSQNEGHHHHHH | soluble
2 | MSLARRVGIYTRISRDDEGDALGVARQHRDCERLADLRSWQAVKVYEDNDVSAYKRHVVREQFELMLSDLGAGLIDGIVAYDLDRLARQPRDLERLIEIFDERPRLEFATVTNDVNLGTPDGRTMSRIMVAFANKSSHDASRRIKRKHLELAQQGKDSGGPAPYGWLKEDRSKVDPKAAAAIREAQREILAGVRIGTIRTRWQEQGLGNPRAGTKRMAHHHVEHILTSPRLVGYRTYHGEVLNDEDGRPVMGEWEAINTLEEWEAVCAAVAERKQKQPGRSLARKYMLSGIARCGLCKTKIRGQINQRWQPGSKATKFTYQCSVVNGGCGKVGRVGEPVDRLIAELALEEQRARAAATTVPIDQRWSRNAELEQVNDDITQLVNAERSKQITVTTLLQLLPGKERQRDELKLERARFYKELKQSEAKGDAANLTLDEFFGLPIERQQEIVLHRLSAVIIHPAGKGRRRFDPSLIEPVWREGHHHHHH | soluble
3 | MSLASAIRICTKFSRLSLNSRSTSKSLIHCMSNVTADVPPVSETKSKFLKAYKRPIPSIYNTVLQELIVQQHLMRYKKTYRYDPVFALGFVTVYDQLMEGYPSDQDRDAIFKAYIEALNEDPKQYRIDAQKMEEWARSQTSASLVDFSSKEGDIEAVLKDIAGRAGSKEGFSYSRFFAVGLFRLLELASATDPTVLDKLCASLNINKKSVDRDLDVYRNLLSKLVQANELLKEYVEREKKKQEERAQSQKANETISKCLGDTLYNPSFLVERKSEGHHHHHH | soluble
4 | MSLASLPGGASTLQETYQDWTVSCQSQKDTTACVMRQEQSSAQTGQRVLTAELRNVAGGKVDGVLLMPFGLDLAKGASLKIDDTAGPNLTFSTCLPQGCLAPVSFDAKQVAALKSGTNINVTTTALSPSQPVAFKISLKGFGAALDRIQALTKEGHHHHHH | soluble
5 | MSLATIYDVSVLAGVSLATVSRVMNKNTNVSEKTKKKVQDAMDQLGYRPSSIAQSLASNRSNSIGVLVSQLDGPFYGPMMTEIETALRDANKHVIIAAGHSNETQEKEAVEFLLDRGCDALILDVEALSDEYIINLCQQSTPIVLINRFISEIEERCIYLNNALGGYLATKHVLSQGHTQLAYIAGPQFKSDARERLEGHKQALAEFEVTFDETLFFEGNFREPSGVSAMEYLLKQDKQFTCVISANDQMASGAIAVSLERDISVPKQLSFIGYDNSPFPKYISPKLSTVSNPIQEMGKMAALWVLKNVYNKPDLSIVNTFTPQLILRDSVKEGHHHHHH | soluble
6 | MSLAVDTSGEFMRHLYIEEGRTVCASATSRNRRPTSESPHSDDVVVVEGMLRGRPETRVHAMFDGFQGRHSAMWLAQNVMNYLNDLRDVNEEEITRQFERMDGDLRAANLPGGSSALIIFVRYEKKPTEARVVGRQIVPEGAKEFTSVAEALGGPLMPVVAMNFRRDPRAAKGIYTIHVASLGNSRCVLKSGRTAIHLSTPHTASSHKERHRVQAAGGVFTTVNGELLLGGVVPMTRAFGSFDFKKGGQGKLQQDLVSAVPDVTTFFAYPGDDIVAGTAGAFAHFRSHAAIAAAIALYPVSPETVLDAAKAMVVNAKRRKVTKNISTFVRHLPESRTRSQKMLEGTSGENGEEDFSIDRTNELTQALQAGFFSFLLYYEGHHHHHH | soluble
7 | MSLDCKIDIIPRVLHFKQPAGTSRGTYTTRKVWYLHFTAPEFPNWVGIGECAPLPNLSCDDLPDYEEVLAKICRQVENQGGKLDMEALCKYPSILFGLETAIRHFFEGSWALWDTPFSRGEAGIPINGLIWMGDFNRMLAQIEKKMEAGFRCIKLKIGAINFEEELALLQHIRSHYSSKEIELRVDANGAFSPTDAMEKLKRLSELDLHSIEQPIRAGQWEEMARLTSESPLPIALDEELIGYNTWEEKQRLLSAIRPQYIIIKPSLHGGLAGGEEWIAEAEKLNIGWWITSALESNIGLNAIAQWCATFQNPLPQGLGTGLLFTDNVEMPLEIRKDCLWFCKEGHHHHHH | soluble
8 | MSLDDKATKPHDRLAQALAEDMAAVNALIRERMSSEHAPRIPEVTAHLIEAGGKRLRPMLTLAAARLVGYGGPFHVHLAATVEFIHTATLLHDDVVDESRQRRGRPTANLLWDNKSSVLVGDYLFARSFQLMTDTGNMRVMEILANASAVIAEGEVLQLTAAQNLATTEDIYLRVIRGKTAALFSAATEVGGIIGGAPEDQVQALFDYGDALGIAFQIVDDLLDYGGKSAEIGKNTGDDFRERKLTMPVIKAVALADEAERAFWKRVIEKGDQQDGDLEHAMALMTKHGTLEATRLAAIGWTDTARKALAKLPDHPLRQMLDDLADYVVERVREGHHHHHH | soluble
9 | MSLDFAARQAAFADALLHPDRPVPDGVINARGEPDAARFAVYRNNVFVGLTKALAQRFPVTERLVGSEFFAAMARAYVQDHKPASPLIMEYGDDFPDFVAAFEPAGTLVYLPDVARLEAAWTEAYHAADSAPLDLAAFGAVAPEMLSDLRLLPHPSARLILSNFPVGSIWSAHQEAVVSPVSDWGGQAVLVVRPEMSVNVHVLPPRDAVFAAALFNAATLGEAAEAAFAAAPEFDFGTALVGLAGIGAFRAFQQYKGNEGHHHHHH | not soluble
10 | MSLDFRSADFLRTHISDTMAFYHPRCIDSAGGFFHYFRDDGSIYNATHRHLVSSTRFVFNYAMAYLQFGTAEYLDAVHHGLSYVRDVHRNPATGGYAWTLCDDRVEDDTNHCYGLAFVMLAYSCGLKVGIKQAREWMDETWCLLERHFWDAEYGLYKDEADAQWNFTRYRGQNANMHMCEAMLAAYEASGEQRYLERALVLADRITRRQAAKADGLVWEHYDMRWEVDWDYNRDNPKHLFRPWGFQPGHQTEWAKLLLILDRYIEVEWLVPVARSLFDVAVARSWDAVRGGLCYGFAPDGTICDDDKYFWVQAESLAAAALLATRSGDERYWQWYDRLWAYAWQHMVDHRYGAWYRLLDGDNRKYNDEKSPAGKTDYHTMGACHEVLNVVWTKSEGHHHHHH | soluble
11 | MSLDGGTLGATNRFLTRDGSPWIPIAGEMHYSRIAAERWDTELAKMAAAGIDVVSTYVFWNHHEEREGEWDFSGNRNVRRFVELCARHGLHVIVRLGPFCHGEVRNGGLPDWLYGKSYEVRSLDAGFLDAVRGLYAHIAQQLRGLYFKDGGPIIAAQVDNEYMASSAPWEMTTGISREWVPSGHDGAGYLERLRDIAIEEGIDPPMFTCTGWQSPVPDDMLPLWGGYAYRPWLFYDGVGAEGMTEHPATDEYRYRRLHGSSTSDGFDPPYDPDSRPYACCEMGGGMFNSYDYRFVLPKRSVDAMANIKLGSGCDFLGYYMFHGGTNPKGAAGFLNEGQTPKRSYDFQAPLGKFGQVRESYRRLRTLHEFVKAFGPELAGMPVSLQDGQDRIDPSDSETLRYAVRSDGERGFVSIDNFQDHARVPSRHGEQIDVTTGTGERIRFTGIGLAEGENCILPFNMDLDGVRLVRANLQPVTVLRVPGRPFRTFVFLKPDGMDELTFHFEGDIQDVTVGKADFERFMVRDAAEIVCVTRALAGRMTVLDGGLAFVDDDNALLYEDGDGWTLESPRAENGIAAYPEGLLGSPRPVEPVSVYARMRRLHADRYEIALPAGMGRLFRDQRQVADVMLNIAYQGDIGWLFCGDVLIADNFCNGETWQVGLRDYADAIDAAGGKLTLVVTPLRRGVRVKVTSSMAARLEQSDACVADVTDVYATPVYHMPVGEGHHHHHH | not soluble
12 | MSLDHTYVFAVGGLDEVGKNSYAIEHNEETIMVDYGIKFASSDLLGINGIVANTSYFVENNRPIDALLLTHGHEDHIGGIPYLLQTTEVKKIYAPLLATELIKRRLSEFRDIKYNPEIIPFGDDSKVSTKYFEVDFFRVCHSIPDSFGMCIKTPNGRIVSAGDYRYDFGKDTDDTNIHKLVEMSNRGIDIFLSESTNSDQPGFSPSEDNIINNIETLIKNSKGRVFVATFASNLGRIEKIIERAIKSGRRVCIMGRSMEANIKTSKKLGYLKISESDFLTTKELNECKDREILVVLTGSQGEEMAALNQMALGKHPRLSLKPSDSIIMSSNPIPGNFKSVELLINRLYKQGVNMYTNSPNFRIHSSGHATIQELQMMFKILKPKYLIPIHGESKMLSAMKRNANSIGINPENVFVLTNGLKVELKDHNLKLTNQRIDACPIYIDKKVASKSTTDLINKRKLLSEEGIFNIIVLIDHKNKKVVKNPMLSTRGCFYAKDSSSLITKISFSVKDEIESLLNKEAEASKEKIKQAVANVVKFYVWKNKKKNPIVTTTVFDIEGHHHHHH | not soluble
13 | MSLDKKAVFADVAEKDASFINENYYISPSLDTLSSYSLLQLRKVPHLVVGHKSYGKIEFLEPVDLAGIPLTSLGGVIITFEPKTCIIYANLPNRPKRGEGINVRARITCFNCYPVDKSTRKPIKDPNHQLVKRHIERLKKNPNSKFESYDADSGTYVFIVNHAAEQTEGHHHHHH | soluble
14 | MSLDKLLERFLNYVSLDTQSKAGVRQVPSTEGQWKLLHLLKEQLEEMGLINVTLSEKGTLMATLPANVPGDIPAIGFISHVDTSPDCSGKNVNPQIVENYRGGDIALGIGDEVLSPVMFPVLHQLLGQTLITTDGKTLLGADDKAGIAEIMTALAVLQQKKIPHGDIRVAFTPDEEVGKGAKHFDVDAFDARWAYTVDGGGVGELEFENFNAASVNIKIVGNNVHPGTAKGVMVNALSLAARIHAEVPADESPEMTEGYEGFYHLASMKGTVERADMHYIIRDFDRKQFEARKRKMMEIAKKVGKGLHPDCYIELVIEDSYYNMREKVVEHPHILDIAQQAMRDCDIEPELKPIRGGTDGAQLSFMGLPCPNLFTGGYNYHGKHEFVTLEGMEKAVQVIVRIAELTAQRKEGGSHHHHHH | soluble
15 | MSLDKLNAISIFCKVIETQSFTLAAKQQNISVAMASKLVSQLEEHLKTRLLQRTTRKIMPTEAGMMYYQRCQGILLDLDEADSSITQLTSSLQGNLLISVPRDFGLLFIAPNLPTFMAKHPHLHIEVEFNDKKIDLLSEGYDLALRIGYMEDSSLVSRKIGTTTVHFAASPNYLETNGIPQTPDDLEHHNGLLYKNAMNQVNWVGSRINQTQRFKIQSKVVSNSGFALLNMAKAGLGIANLPKFILGRAFEKGELIEILPEYKQQKLEIHVVYPNRRHLPIKVTGISLNFEGHHHHHH | not soluble
16 | MSLDLKFTDFLDPRVKSSLGEEEIVFPPYDANQLRDILQHRSDVAFKADALSDDVLPLCAAFAAQEHGDARRALDLLRTAGELAERDQAENVTEDHVRRAQDKIELDRVVEVVRTLPTQSKLVLYAILLLEDNGVHNVNTGEVYNIYKTLCDELDADVEGHHHHHH | soluble
17 | MSLDLKQVLRATMVKGVLQRGTIALGNDPGVLRIYTRAACPGTLAKNYLGEWCFASKVAEEASPRVHVVGDIHGNIEALFKVLIRTKLFILDEPMSNESYEGYEDPEEPFSVKGWGVHPRYAVEGTQKYIVKDYDHIYLFLGDYVDRGSFSIECLVVLLGLKILFPNAVYLLRGNHETRACLQRGQLFQELIHKYEYVEASKITDRLLRLFDALPTCALINDYVFAVHAGIYSKNASLADIEKYCTKRAPCSKFHTKAPYFDPLHNMLWADFVEDQPAIDLSQDNRRRNTGIVFYPSTVKEFLKNEGLGLFIRGHQSTPFGVSISQTGKLVTVSINSDSTPTWLGAVLTLVHPADADASESISPVNLASEGHHHHHH | not soluble
18 | MSLDMKEWEIFYNKIMEDFGFDKDKDVESAVILNNILENANTIPVDKLKDIIEGREVFIFGAGPSIKKHINILKELREINYKNPIIVADGACKAFLEENIIPDIIVSDLDGDLEALFECNRKGSIIVVHAHGDNIEKIKKYVPKLKNVVGSCQIPNYKELNLRNVINFGGFTDGDRCCFLAYHFKAKKLILGGMDFGIYITKYSRPNIKEDIAIGDEIKIKKLEYAKTLINYLKDKIEIEFLKEGHHHHHH | soluble
